These results are taken from the domain aggregation screens of Martell et al. (2025).

The data set is described as follows: soluble fraction after stress (log2 fold change); higher = more stays soluble; pooled small domains, quantitative proteomics. The following applies: stress: pH 4. In outline:
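Small protein domains from pooled custom libraries were exposed to pH 4, then quantified with high-throughput quantitative proteomics. The fold change in how much of each domain remains soluble is read as aggregation propensity. It is given as log2, with higher values meaning more stayed soluble.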
“HMAKIEVENLEETILENLKANNGFMPYNDKTSPEEIYEVFHVSKKHFKNSLGGLMKKGLIFQNEKGTKL”: the “soluble fraction (log2)” value is -0.444.
Turning to “HMAKITERVMGSAALRDYDPNYLPDEVLKALDGYPPFDGYVYKDGILYARVKIGDTFFIIPPI”, the “soluble fraction (log2)” value was -1.84.
In the case of “HMAKKDVESTLGGRLRVARVRAGLTQVELARMLGMNSVSLSNVEGGRRGLSMKQLVRVAKILEVPVAYLLG” it was 0.151.
In the case of “HMAKMPSIIIMKDGVIRTSELEQIERDENWLNEEMKKQHIDNPEDVFLAEFWDGKVNFILQDGKIK” it was -0.78.
In the case of “HMAKNDSGLNNHTFNTIRDALQKALTDGPQEAKKLTENLPFPADKIITVIRYLADHDEHFSLEDGIISLT” it was -0.0785.
On to “HMAKNIEVPNLVGSTISVARNDLKQLGLHVIVRDSVWSEDKKIDTILEQFPEPGKKLKPEGVVQVVVSI”, for which the “soluble fraction (log2)” value came to 0.0706.
The value for “HMAKNSVLTIELWNSTAFKWRKDTEPYSESMSVDFNRSVRLTDGISIMFSKFGFVPGIQYLIPLQT” was -0.331; that for “HMAKQQTTTTAHVVTTGETLYSIAQKNGISVEELKKSNNITSDKLRPGQTLHITKVSKTSSTAK” was 0.129.
In the case of “HMAKRPRFEDVIKEINTEIQKRKGKWNLTILSWMDFDDVAQVIRIHIYRKWHLYDPSKPLGPWLNR”, the “soluble fraction (log2)” value was determined as 0.322.
The value for “HMAKSETAKIKATPYGWLRVRDTPSLNGAEIARVNSGDEYKVLEKETGWIKIKVSDTVEGWVSDAYIELS” was 0.16; that for “HMAKSKYETHVLPNLDKIIKWAKAGATAKEIAANLHIAYSTFRKYLDEGQEGDERYAALSAAFAQA” was 0.22; that for “HMALDLNEDEKLLVELIEKAGGTAGLGELKEASGLSGKKWDKTTKNLSKEGLIKVEKNESGLWVHLT” was -0.423.
In the case of “HMALDLPVKRVKGKEYYYYKVKKGESLYGISKHLGLPLDSIVKSNPSVADGVRKGDMLLFPLEEYT” it was 0.115.
The value for “HMALKQADFDFIRQMIQQRAAIVLDDNKHYFVESRLGPVVEETGSKSLDQLIDQLRSSSNSLLQQKVTEAI” was -0.324; that for “HMALLSDEERIATVFAARLGGYSHQEIYKLLQDRFGPSLPAAYSEKSVLTDLQTALSQVPSL” was -1.41; that for “HMALPEHIEPFLRGLGQALAEGDSYEDVQERLLRAYPYLDSTEFQTALARVIFISDLWGRLN” was -1.02.
Turning to “HMALPPPELRGATGEAVTALRPAGIALIQGKRYDVLAEGGEWIAAGAAVRVRDIRNGHLIVSDA”, the “soluble fraction (log2)” value was 0.166.
The value for “HMALRFMAYGRINGTNVHFRTGASASTASLGRYSRGTEFGVYDKIGGWYRVRLLSTGQEGYVYSRYLTLTG” was -0.0807.
In the case of “HMALSGTVQNFAGGIMILIFRPFKTGDYIEALGYFGKVSEVNIVSTKLRTFDNKTIILPNGALSNGNIQNY” it was -0.775; in that of “HMALSSQQIKDMQSWYGTKADGIWGSKSTTAAGGRDAGAAYSLYSSNKGRYSSYTDYMSYGGG”, -0.000306; in that of “HMALSTRERMSFVLEVLKEKEFIPFVDLFSPEEGRAGVVVTFLALMELMKDSLIEIVQTKNFGEIHVRARL”, -1.07.
For “HMALTQEQLGQRLQDARKSVALTQQEVAEDLGLSRESLAQIEAGSRSVNSLEIVRLARLYGRSLSSILLE”, the “soluble fraction (log2)” value was -0.299.
On to “HMALYSEQVSEIEKALMSLPPKYQLVMLLLYAEDLKYEQIAEILDEPIGTVKTKIHRARKILKERF”, for which the “soluble fraction (log2)” value is -0.0112.
The value for “HMAMDSGELEAIVDRLISEHPDDWAALTAGDDRERKKKSGFFVGEVMKATRGQADGRAVIELLASRSA” was -0.605; that for “HMAMDYTVVHSDRRTIAIQIQRDGRVVVRAPYAATAEDIRRVVDSHRDWVEKTVRRQQEQLAAS” was 0.238; that for “HMAMNITQRHQEILAVIKQEKHITVSEISKLLGVSEVTIRKDFNYLEEKNLIYRHHGGASLNN” was -0.0786.
Regarding “HMAMPQPVARALHRLGQDISAARRMRRLSQEDLAQRIGTSLSTVRRMEDGYPGTALHTFLRALHML”, the “soluble fraction (log2)” value was -0.4.
“HMAMSDFDALSNRISTLSQGRASAVRMKDGIVSLVLDIGGLSAEERKAMTAAIEGEGRGYPSVTQVRILET”: the “soluble fraction (log2)” value is 0.0485.
For “HMANAGKFDSDMGEKINFPGNRVSLTPSELEAARELAAIMGDRFFSQLIPTTSKVTVTEMLQSLK”, the “soluble fraction (log2)” value was -0.849.
Turning to “HMANGTVKWFNTTKGFGFIAPETGGKDVFVHISAVERSGLTGLADDQKVTFDVEAGRDGRESAVNLAL”, the “soluble fraction (log2)” value was -0.613.
In the case of “HMANKTVPNVSGKTVAEARAIIENQSLQVGEEKEEYSDSVAEGYIIRTNPTAGSQKKEQSKIDLVVSKG” it was -0.211; in that of “HMANLDSLIKKVGQYAKDKQSISVDGIKKDLSIDKDMVKEALAELLKIGVVDKPDEAGQYKVIM”, 0.0802; in that of “HMANPMFAEIKKVQKQLNEMGYQAGPADGLWGNKTENAVKLLLSDNNLKWDGTFDQNEIKIIEEIFLSND”, -0.257.
In the case of “HMANPRLEYFLSNITPDWNEFSPELKNQLLIENADPYKLEQYILQVSPDMYIEEQNAPGTVRQMAGDITG” it was -1.54; in that of “HMANSANARKSLVSKLIAGGKIASQSDLVKALKKQGIVVTQGTASRDLEDIGAIRVRNSEGEIVYALT”, 0.108.
The value for “HMANSDEEVLNKISTKAPTFNELINKIKEFDDTKEINDIWLDVYRYYITDEEYKEIAKKVITGLTYTNQ” was -0.544; that for “HMANSLLVTAQAGGQKLFNFLKRSLHAENNEIHRWIRTGQVRINKKRTKAFDIVHENDEIRIPPFALNR” was -0.053.
Turning to “HMANSREIPKLAGIEQEEAVKQLLDLDLKPVIEEITDDDTDAGDVVRTDPAAGEHVAVDTEITVFISIG”, the “soluble fraction (log2)” value is -0.192.
In the case of “HMANVQLAKNLKTLRKKYNYTQQDVSTFLNITRQAYSHYEQALREPDLNTLVHLSRFYQVTLDELI” it was -1.6; in that of “HMANYHDIAADLRSKINHGFYEEEKKLPKQSELAADYQTSRVTIQKALNILQMEGIIYGKKGTGTFIRDSY”, 0.0346.
The value for “HMANYTVNAYNNGGTGGSVNMRSGPSTNDGIVVRVPHGATVTGTKSGTWSYMTYNTYTGYMMSVYLDEQS” was -0.0556; that for “HMAPAPYLVKVTANKLNIRSGPGTNYKIQGAITDKGTYTIVDTQGRWGKLKSGAGWIYLNYTKK” was 0.22.
The value for “HMAPASADQLIDQLNEKVKAKDDKGVAALLTAAQTKMAELAQKDPKEAQAYVAKLQQWMQSNSENIKAALK” was 0.204; that for “HMAPAYELTEEETKIIEILKANENIDLNELKSQAALSGKKWDKSMKNLAKYNLTKVTVDGDAKTVAYLA” was -0.516.
In the case of “HMAPELSGEKLWDAQDVAMFLRVKPTTVWSYVSRDGFPAPVSQAGRAGMWSEPLVVQWYLSRPG”, the “soluble fraction (log2)” value was -0.16.
In the case of “HMAPEPFILSVDADGKYYIDDLEKTKQEILIYATALYQEKPTTDFLVRGDKSAAYNDVLQAMVVLKE” it was 0.171.
The value for “HMAPETALQILEQIQINPKVTMTDLANLTGYSRRWVAQTMKQLQELNVIKRVGSTKTGYWEIIA” was -0.142; that for “HMAPGSKAEIPEDLMKVINKDPKMKAFVATLNKANIMAISFRLSTAKKPETRERRFNLILETLKRGEKF” was -0.644.
As to “HMAPKVTLNETETAIFEKMQQEKQLLLSELRTHFDISNKLWDTSIKTLTKNQLLTVSKEADLLWIKL”, the “soluble fraction (log2)” value is -0.935.
In the case of “HMAPLAVIFPEPWRGMIAPEKLEGLTQALSLNPRPGYQHDPTRRYGVSLDGLDVRFTIDGDTLTVVEVVT” it was -1.12.
